We go through 13 variants from the supplement of paper PMC6757056.

± gives the standard deviation of the averaged measurements.

To fix the notation:
B1: library; a variant is named by its letters at N, in order (parent)
chain: GCUGUCACCGAGAAACUGUGAAGUAUAUCUUAAACCUGGGCACUUAAAAGAUAUAUGGAGUUAGUAGUGCAACCUGCUCGGUCUGAUGAGUCCNNNNNNGGACGAAACAGC

Variants of B1 are the subject of data set [1]. Briefly: FACS-Seq fitted mean relative fluorescence mCherry/BFP without ligand (log10 relative fluorescence); HEK293T; ligand: cyclic di-GMP (c-di-GMP-II aptamer); higher = higher reporter protein expression. As to conditions: ligand present: no. The essentials: (§1)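 Enriched HEK293T cells carrying, by lentivirus, an mCherry reporter with the ribozyme switch and an EF1α-BFP marker spent 48 h with or without ligand and were sorted into 6 bins by mCherry/BFP. MiSeq sequencing of PCR-amplified bin genomic DNA gave bin counts. Fluorescence was calculated as the fitted normal mean of those counts. Counts were binned on log10(mCherry/BFP), and means were scaled to five spiked-in control ribozymes.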

Data set [2] covers variants of B1. Kind of data set: normalized RNA/DNA level without ligand (relative to sTRSVctl = 100) (log10 (% of sTRSVctl)); HEK293T; ligand: cyclic di-GMP (c-di-GMP-II aptamer); higher = less ribozyme self-cleavage, higher mRNA level. As to conditions: reporter: mCherry (pCS4076), ligand present: no. In a few lines:
(§2)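 HEK293T cells were transfected with library plasmids carrying ribozyme switches linked to an mCherry reporter, or an eGFP reporter in some ligand experiments, at 4 µg per well of a 6-well plate, with any ligand added 1 h beforehand. After 72 h, total RNA was extracted with EDTA, reverse-transcribed, amplified, barcoded and sequenced. RNA level was defined as RNA reads over DNA reads, normalized to a spiked-in non-cleaving sequence or to the top-ranked sequences. That value was multiplied by 100 and converted to log10, the top set was 25 sequences, and only sequences with ≥100 DNA reads were retained.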

Data set [3] covers variants of B1. Kind of data set: FACS-Seq fitted mean relative fluorescence mCherry/BFP with ligand (log10 relative fluorescence); HEK293T; ligand: cyclic di-GMP (c-di-GMP-II aptamer); ligand concentration (+) FACS-Seq: 1 mM; higher = higher reporter protein expression. Conditions: ligand present: yes. The essentials: as §1
Data set [4] covers variants of B1. Briefly: normalized RNA/DNA level with ligand (relative to sTRSVctl = 100) (log10 (% of sTRSVctl)); HEK293T; ligand: cyclic di-GMP (c-di-GMP-II aptamer); ligand concentration (+) RNA-Seq: 1 mM; higher = less ribozyme self-cleavage, higher mRNA level. Conditions: reporter: mCherry (pCS4076), ligand present: yes. In a few lines: as §2

For GCUGUCACCGAGAAACUGUGAAGUAUAUCUUAAACCUGGGCACUUAAAAGAUAUAUGGAGUUAGUAGUGCAACCUGCUCGGUCUGAUGAGUCCGGGGACGGACGAAACAGC [GGGGAC], the results for the “FACS-Seq fitted mean (log10)” value in data set [1] and in data set [3] were 0.068 ± 0.1 and 0.307 ± 0.041, respectively. Moreover, in data set [2], the “normalized RNA/DNA level without ligand (log10)” value was 1.65 ± 0.027. Also, the “normalized RNA/DNA level with ligand (log10)” value in data set [4] came to 1.8 ± 0.17.
In the same order, the values of GCUGUCACCGAGAAACUGUGAAGUAUAUCUUAAACCUGGGCACUUAAAAGAUAUAUGGAGUUAGUAGUGCAACCUGCUCGGUCUGAUGAGUCCUGGGAAGGACGAAACAGC [UGGGAA] are -0.259 ± 0.11, -0.113 ± 0.048, 1.57 ± 0.12 and 1.77 ± 0.089.
On to GCUGUCACCGAGAAACUGUGAAGUAUAUCUUAAACCUGGGCACUUAAAAGAUAUAUGGAGUUAGUAGUGCAACCUGCUCGGUCUGAUGAGUCCAGGGAGGGACGAAACAGC [AGGGAG], for which the “FACS-Seq fitted mean (log10)” value was -0.66 ± 0.02 in data set [1] and -0.378 ± 0.013 in data set [3]. The “normalized RNA/DNA level without ligand (log10)” value in data set [2] came out at 1.6 ± 0.05. For the same variant, in data set [4], the “normalized RNA/DNA level with ligand (log10)” value was found to be 1.73 ± 0.084.
Turning to GCUGUCACCGAGAAACUGUGAAGUAUAUCUUAAACCUGGGCACUUAAAAGAUAUAUGGAGUUAGUAGUGCAACCUGCUCGGUCUGAUGAGUCCAGGCUUGGACGAAACAGC [AGGCUU], the “FACS-Seq fitted mean (log10)” value in data set [1] amounted to 0.2 ± 0.22; in data set [3] it was 0.371 ± 0.029. The “normalized RNA/DNA level without ligand (log10)” value in data set [2] came to 1.655 ± 0.015. Also, the “normalized RNA/DNA level with ligand (log10)” value in data set [4] was found to be 1.85 ± 0.1.
In the same order, the values of GCUGUCACCGAGAAACUGUGAAGUAUAUCUUAAACCUGGGCACUUAAAAGAUAUAUGGAGUUAGUAGUGCAACCUGCUCGGUCUGAUGAGUCCGGGGGCGGACGAAACAGC [GGGGGC] are -0.722 ± 0.011, -0.503 ± 0.012, 1.77 ± 0.043 and 1.87 ± 0.12.
For GCUGUCACCGAGAAACUGUGAAGUAUAUCUUAAACCUGGGCACUUAAAAGAUAUAUGGAGUUAGUAGUGCAACCUGCUCGGUCUGAUGAGUCCCGGCUUGGACGAAACAGC [CGGCUU], in that order: -0.717 ± 0.062, -0.63 ± 0.15, 1.5 ± 0.099 and 1.67 ± 0.062.
In the case of GCUGUCACCGAGAAACUGUGAAGUAUAUCUUAAACCUGGGCACUUAAAAGAUAUAUGGAGUUAGUAGUGCAACCUGCUCGGUCUGAUGAGUCCCGGCUAGGACGAAACAGC [CGGCUA], the “FACS-Seq fitted mean (log10)” value is -0.523 ± 0.084 in data set [1] and -0.355 ± 0.014 in data set [3]. For the same variant, the “normalized RNA/DNA level without ligand (log10)” value in data set [2] stood at 1.33 ± 0.088. In addition, the “normalized RNA/DNA level with ligand (log10)” value in data set [4] is 1.46 ± 0.18.
As to GCUGUCACCGAGAAACUGUGAAGUAUAUCUUAAACCUGGGCACUUAAAAGAUAUAUGGAGUUAGUAGUGCAACCUGCUCGGUCUGAUGAGUCCCGGGGCGGACGAAACAGC [CGGGGC], the “FACS-Seq fitted mean (log10)” value is -0.104 ± 0.11 in data set [1] and 0.215 ± 0.046 in data set [3]. In data set [2], the “normalized RNA/DNA level without ligand (log10)” value came out at 1.73 ± 0.055. In addition, the “normalized RNA/DNA level with ligand (log10)” value in data set [4] came out at 1.84 ± 0.14.
GCUGUCACCGAGAAACUGUGAAGUAUAUCUUAAACCUGGGCACUUAAAAGAUAUAUGGAGUUAGUAGUGCAACCUGCUCGGUCUGAUGAGUCCCGGGGAGGACGAAACAGC [CGGGGA]: the “FACS-Seq fitted mean (log10)” value in data set [1] is -0.489 ± 0.015; in data set [3], -0.28 ± 0.044. Besides, the “normalized RNA/DNA level without ligand (log10)” value in data set [2] was determined as 1.54 ± 0.11. In addition, in data set [4], the “normalized RNA/DNA level with ligand (log10)” value was 1.64 ± 0.093.
As to GCUGUCACCGAGAAACUGUGAAGUAUAUCUUAAACCUGGGCACUUAAAAGAUAUAUGGAGUUAGUAGUGCAACCUGCUCGGUCUGAUGAGUCCCGGGAAGGACGAAACAGC [CGGGAA], the “FACS-Seq fitted mean (log10)” value is -0.636 ± 0.012 in data set [1] and -0.472 ± 0.015 in data set [3]. Moreover, in data set [2], the “normalized RNA/DNA level without ligand (log10)” value is 1.33 ± 0.033. The “normalized RNA/DNA level with ligand (log10)” value in data set [4] was determined as 1.36 ± 0.081.
In the case of GCUGUCACCGAGAAACUGUGAAGUAUAUCUUAAACCUGGGCACUUAAAAGAUAUAUGGAGUUAGUAGUGCAACCUGCUCGGUCUGAUGAGUCCCGGGAGGGACGAAACAGC [CGGGAG], the “FACS-Seq fitted mean (log10)” value in data set [1] was -0.586 ± 0.063; in data set [3], -0.113 ± 0.0022. The “normalized RNA/DNA level without ligand (log10)” value in data set [2] is 1.68 ± 0.017. Also, the “normalized RNA/DNA level with ligand (log10)” value in data set [4] turned out to be 1.79 ± 0.064.
GCUGUCACCGAGAAACUGUGAAGUAUAUCUUAAACCUGGGCACUUAAAAGAUAUAUGGAGUUAGUAGUGCAACCUGCUCGGUCUGAUGAGUCCCGGGUCGGACGAAACAGC [CGGGUC]: the “FACS-Seq fitted mean (log10)” value is -0.589 ± 0.12 in data set [1] and -0.527 ± 0.034 in data set [3]. Also, the “normalized RNA/DNA level without ligand (log10)” value in data set [2] amounted to 1.81 ± 0.032. The “normalized RNA/DNA level with ligand (log10)” value in data set [4] came to 1.9 ± 0.057.
Take GCUGUCACCGAGAAACUGUGAAGUAUAUCUUAAACCUGGGCACUUAAAAGAUAUAUGGAGUUAGUAGUGCAACCUGCUCGGUCUGAUGAGUCCCGGGUAGGACGAAACAGC [CGGGUA]: the “FACS-Seq fitted mean (log10)” value is -0.076 ± 0.13 in data set [1] and 0.207 ± 0.099 in data set [3]. Moreover, in data set [2], the “normalized RNA/DNA level without ligand (log10)” value turned out to be 1.67 ± 0.023. Besides, the “normalized RNA/DNA level with ligand (log10)” value in data set [4] came to 1.75 ± 0.081.
